The results in this text go back to patent publication US20200224203A1.

The target of series [1] is huntingtin (htt) protein, full length, from human fibroblasts, P42858.
Series [2] addresses modified htt protein after partial exon 12 skipping (human) (UniProt P42858). In words: cell-based or functional assay.

Chain of huntingtin (htt) protein, full length, from human fibroblasts, P42858 (P42858 whole entry): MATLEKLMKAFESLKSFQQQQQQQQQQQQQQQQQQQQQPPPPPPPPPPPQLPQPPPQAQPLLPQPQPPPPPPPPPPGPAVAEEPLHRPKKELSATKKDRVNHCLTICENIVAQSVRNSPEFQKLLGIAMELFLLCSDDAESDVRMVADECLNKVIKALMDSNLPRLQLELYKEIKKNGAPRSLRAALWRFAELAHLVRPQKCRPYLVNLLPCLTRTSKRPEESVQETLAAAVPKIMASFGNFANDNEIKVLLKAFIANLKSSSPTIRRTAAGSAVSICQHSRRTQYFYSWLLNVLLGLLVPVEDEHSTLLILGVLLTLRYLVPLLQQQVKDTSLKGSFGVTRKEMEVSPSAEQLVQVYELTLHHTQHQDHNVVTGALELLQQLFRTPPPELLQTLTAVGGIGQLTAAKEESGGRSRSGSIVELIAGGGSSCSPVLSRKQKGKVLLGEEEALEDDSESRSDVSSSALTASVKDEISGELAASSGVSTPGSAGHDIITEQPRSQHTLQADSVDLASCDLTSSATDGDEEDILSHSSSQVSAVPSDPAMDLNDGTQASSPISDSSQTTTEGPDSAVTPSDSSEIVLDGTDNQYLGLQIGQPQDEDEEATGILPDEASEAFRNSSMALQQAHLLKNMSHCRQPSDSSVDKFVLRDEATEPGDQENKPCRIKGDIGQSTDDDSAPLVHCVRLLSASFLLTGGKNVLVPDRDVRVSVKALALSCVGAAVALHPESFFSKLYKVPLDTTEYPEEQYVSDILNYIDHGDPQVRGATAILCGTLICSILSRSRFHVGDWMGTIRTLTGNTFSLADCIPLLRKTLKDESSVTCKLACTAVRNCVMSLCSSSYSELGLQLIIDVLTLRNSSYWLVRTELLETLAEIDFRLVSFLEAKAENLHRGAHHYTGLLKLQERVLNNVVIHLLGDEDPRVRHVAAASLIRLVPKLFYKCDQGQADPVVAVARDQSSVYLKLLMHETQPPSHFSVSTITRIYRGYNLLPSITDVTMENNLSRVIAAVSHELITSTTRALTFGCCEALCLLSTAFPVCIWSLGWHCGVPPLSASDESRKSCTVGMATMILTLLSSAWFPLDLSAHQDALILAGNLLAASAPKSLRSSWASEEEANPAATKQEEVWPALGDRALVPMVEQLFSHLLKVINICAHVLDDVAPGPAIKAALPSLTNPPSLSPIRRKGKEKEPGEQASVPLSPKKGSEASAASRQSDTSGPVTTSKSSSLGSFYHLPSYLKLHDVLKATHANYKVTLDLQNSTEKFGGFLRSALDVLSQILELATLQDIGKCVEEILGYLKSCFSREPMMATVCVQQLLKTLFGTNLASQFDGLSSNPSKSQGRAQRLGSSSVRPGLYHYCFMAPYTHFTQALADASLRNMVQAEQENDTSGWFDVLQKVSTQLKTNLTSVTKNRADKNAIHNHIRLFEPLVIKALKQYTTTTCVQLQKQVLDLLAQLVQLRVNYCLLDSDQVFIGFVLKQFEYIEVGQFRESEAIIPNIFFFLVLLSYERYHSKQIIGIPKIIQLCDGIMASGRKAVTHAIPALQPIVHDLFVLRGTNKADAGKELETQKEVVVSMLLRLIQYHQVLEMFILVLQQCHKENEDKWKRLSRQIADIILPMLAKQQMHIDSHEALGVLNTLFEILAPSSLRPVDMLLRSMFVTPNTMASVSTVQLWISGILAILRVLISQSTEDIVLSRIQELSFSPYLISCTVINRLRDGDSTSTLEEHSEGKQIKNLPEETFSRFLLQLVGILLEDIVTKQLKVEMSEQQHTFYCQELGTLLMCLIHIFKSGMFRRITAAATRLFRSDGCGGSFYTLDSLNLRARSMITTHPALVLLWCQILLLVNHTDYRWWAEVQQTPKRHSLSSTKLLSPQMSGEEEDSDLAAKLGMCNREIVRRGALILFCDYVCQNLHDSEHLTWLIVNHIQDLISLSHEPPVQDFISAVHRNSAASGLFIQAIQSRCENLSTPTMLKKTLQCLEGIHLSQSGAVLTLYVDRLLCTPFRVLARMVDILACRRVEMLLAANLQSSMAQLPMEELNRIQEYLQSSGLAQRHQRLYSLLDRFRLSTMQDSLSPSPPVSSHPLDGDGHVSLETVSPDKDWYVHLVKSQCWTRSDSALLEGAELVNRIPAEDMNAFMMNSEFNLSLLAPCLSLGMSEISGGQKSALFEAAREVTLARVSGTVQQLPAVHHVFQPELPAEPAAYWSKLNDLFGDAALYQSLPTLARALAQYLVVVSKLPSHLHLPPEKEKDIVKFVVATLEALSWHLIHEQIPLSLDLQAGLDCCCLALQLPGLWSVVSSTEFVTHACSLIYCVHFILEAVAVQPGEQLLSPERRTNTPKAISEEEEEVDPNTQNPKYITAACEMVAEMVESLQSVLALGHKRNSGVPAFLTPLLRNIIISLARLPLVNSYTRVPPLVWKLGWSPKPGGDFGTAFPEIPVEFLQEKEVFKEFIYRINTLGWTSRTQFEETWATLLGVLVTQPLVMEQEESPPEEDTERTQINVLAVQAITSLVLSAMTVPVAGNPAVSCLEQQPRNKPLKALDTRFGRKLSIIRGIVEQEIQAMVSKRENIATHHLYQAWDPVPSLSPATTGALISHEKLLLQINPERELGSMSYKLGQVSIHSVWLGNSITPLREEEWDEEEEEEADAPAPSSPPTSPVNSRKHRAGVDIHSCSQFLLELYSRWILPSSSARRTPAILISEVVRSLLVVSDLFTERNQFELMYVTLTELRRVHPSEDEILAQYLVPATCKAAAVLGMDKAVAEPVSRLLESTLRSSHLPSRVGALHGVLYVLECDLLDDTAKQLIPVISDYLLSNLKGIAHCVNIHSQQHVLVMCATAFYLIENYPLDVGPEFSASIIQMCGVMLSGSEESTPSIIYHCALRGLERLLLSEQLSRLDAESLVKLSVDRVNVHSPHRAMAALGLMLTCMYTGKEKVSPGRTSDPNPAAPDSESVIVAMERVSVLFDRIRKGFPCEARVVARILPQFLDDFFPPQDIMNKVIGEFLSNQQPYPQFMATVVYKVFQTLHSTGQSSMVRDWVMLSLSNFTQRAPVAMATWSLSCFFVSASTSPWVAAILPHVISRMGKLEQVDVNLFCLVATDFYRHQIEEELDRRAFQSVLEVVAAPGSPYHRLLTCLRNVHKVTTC

B1: recombinant active caspase-6 (protein)
chain: AFYKREMFDPAEKYKMDHRRRGIALIFNHERFFWHLTLPERRGTCADRDNLTRRFSDLGFEVKCFNDLKAEELLLKIHEVSTVSHADADCFVCVFLSHGEGNHIYAYDAKIEIQTLTGLFKGDKCHSLVGKPKIFIIQACRGNQHDVPVIPLDVVDNQTEKLDTNITEVDAASVYTLPAGADFLMCYSVAEGYYSHRETVNGSWYIQDLCEMLGKYGSSLEFTELLTLVNRKVSQRRVDFCKDPSAIGKKQVPCFASMLTKKLHFFPKSN
For B1, the “N-terminal htt fragments detected by Western blot (4C8 antibody) in an in vitro caspase-6 cleavage assay” value in series [1] was “After samples were incubated with recombinant active caspase-6, N-terminal htt fragments of 98 kDa were detected”. Also, the reduction of 98 kDa N-terminal htt fragments in an in vitro caspase-6 cleavage assay (samples from cells treated with hHTTEx12 7) in series [2] worked out at 31.9%.
